What was measured:
Assay in all cases: FACS
GD-Pangolin RBD = target: GD-Pangolin RBD
RaTG13 RBD = target: RaTG13 RBD
LYRa11 RBD = target: LYRa11 RBD
WIV1 RBD = target: WIV1 RBD
SHC014 RBD = target: SHC014 RBD
Frankfurt 1 RBD = target: Frankfurt 1 RBD
CS24 RBD = target: CS24 RBD
A021 RBD = target: A021 RBD
Civet 007-2004 RBD = target: Civet 007-2004 RBD
Rs4231 RBD = target: Rs4231 RBD

Substance: CB6/LY-CoV16
- Kd (GD-Pangolin RBD): 2.15 nM
- Kd (RaTG13 RBD): 3.6 nM

Substance: LY-CoV555
- Kd (GD-Pangolin RBD): 1.3 nM

Substance: REGN10933
- Kd (GD-Pangolin RBD): 0.64 nM

Substance: REGN10987
- Kd (GD-Pangolin RBD): 1.44 nM

Substance: S309
- Kd (LYRa11 RBD): 4.53 nM
- Kd (GD-Pangolin RBD): 4.53 nM
- Kd (WIV1 RBD): 3.89 nM
- Kd (SHC014 RBD): 3.78 nM
- Kd (Frankfurt 1 RBD): 3.5 nM
- Kd (CS24 RBD): 2.52 nM
- Kd (A021 RBD): 4.14 nM
- Kd (RaTG13 RBD): 2.88 nM
- Kd (Civet 007-2004 RBD): 3.75 nM
- Kd (Rs4231 RBD): 3.77 nM

From article PMC7963221
